Data taken from patent US8025878 (BIOARCTIC NEUROSCIENCE, dated 2011).
Numbering of substitutions follows the chain as printed.

T1: C-terminal fragment of Aβ (UniProt P05067 688-711)
T1 construct: domain: C-terminal fragment of Aβ; also called Aβ fragment 17-40
T1 peptide (looked up): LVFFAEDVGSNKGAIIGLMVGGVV

T2: medin fibrils (UniProt Q08431 268-317, not fully specified)
T2 construct: Fibrils immobilized on a nitrocellulose membrane
T2 peptide (looked up): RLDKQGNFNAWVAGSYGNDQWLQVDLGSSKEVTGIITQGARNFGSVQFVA

T3: islet amyloid polypeptide (IAPP) fibrils (UniProt P10997 34-70, not fully specified)
T3 construct: Fibrils immobilized on a nitrocellulose membrane
T3 peptide (looked up): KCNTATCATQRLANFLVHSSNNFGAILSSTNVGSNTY

B1: mouse monoclonal antibody 158 (mAb158) (antibody, V domains shown)
VH: DVQLVESGGGLVQPGGSRKLSCAASGFTFSSFGMHWVRQAPEKGLEWVAYISSGSSTIYYGDTVKGRFTISRDNPKNTLFLQMTSLRSEDTAMYYCAREGGYYYGRSYYTMDYWGQGTSVTVSS
VL: DVLMTQTPLSLPVSLGDQASISCRSSQSIVHSNGNTYLEWYLQKPGQSPKLLIYKVSNRFSGVPDRFSGSGSGTDFTLKISRVEAEDLGIYYCFQGSHVPPTFGGGTKLEIK
notes: Mouse hybridoma IgG with a kappa light chain; In the sandwich ELISA the detecting copy was biotinylated; also called BA9
B2: Aβ1-16 (peptide, UniProt P05067 672-687, looked up)
peptide: DAEFRHDSGYEVHHQK
notes: domain: Aβ1-16; also called N-terminal part of the Aβ peptide; Aβ1-16 peptide
B3: humanized 158 antibody (BAN2401) (antibody, V domains shown)
VH: EVQLVESGGGLVQPGGSLRLSCSASGFTFSSFGMHWVRQAPGKGLEWVAYISSGSSTIYYGDTVKGRFTISRDNAKNSLFLQMSSLRAEDTAVYYCAREGGYYYGRSYYTMDYWGQGTTVTVS
VL: B1 VL with L3V, T7S, S14T, L15P, D17A, Q18P, K79R, L88V, G105P

Assays:
[1] = target: T1, C-terminal fragment of Aβ; assay: competitive ELISA, plate coated with Aβ protofibrils
Method: (§1) From competitive ELISA experiments, the antibody has a strong affinity for human Aβ42 wild-type protofibrils, but only very weak affinity for the N-terminal part of the Aβ peptide and Aβ monomers.
In FIG. 2B a competitive ELISA is shown. An ELISA plate was coated with human Aβ protofibrils. […] The incubation mix was added to the microtiter plate wells and free antibody was allowed to bind to immobilized protofibrils in the wells.

medin fibrils = target: T2, medin fibrils; assay: dot blot, fibrils on nitrocellulose membrane
Source text: (§2) Due to technical difficulties in generating protofibrils from other amyloidogenic proteins than Aβ, mAb158 was instead tested against different amyloid fibrils. The dot blot assay was used for these experiments since inhibition ELISA, where the antibody-antigen reactions take place in solution, is not suitable for insoluble antigens like fibrils. The dot blot assay is however not suitable for evaluation of antibody specificity for various Aβ forms, i.e. for measuring differences in selectivity for profibrils and fibrils. […] As positive controls the antibodies 6E10 (Aβ), pAb179 (medin), pAbA110 (IAPP) and mAb211 (α-synuclein) were used (FIG. 5B). Representative blots from repeated experiments (n=3).

α-synuclein fibrils = α-synuclein fibrils (UniProt P37840 1-140); assay: dot blot, fibrils on nitrocellulose membrane
Source text: as §2

[2] = target: T3, islet amyloid polypeptide (IAPP) fibrils; assay: dot blot, fibrils on nitrocellulose membrane
Source text: as §2

Aβ1-16 = target: B2; assay: mAb158 sandwich ELISA with excess Aβ1-16 added to 50 pM Aβ protofibrils
Source text: (§3) A large excess of monomeric Aβ, holoAPP and APP-fragments, naturally occurring in biological samples, could interfere with the Aβ protofibril analysis by occupying binding sites of the capture antibody coat, thus inhibiting the protofibrils from binding. This problem was investigated by adding an increasing excess of Aβ1-16 to a fixed concentration of Aβ protofibrils (50 pM, expressed as monomer units) and analyzing it with both the mAb158 ELISA and a 6E10-6E10 sandwich ELISA (FIG. 6C). […] Moreover, when synthetic Aβ protofibrils was added to mock HEK cell culture media or non-transgenic mouse brain homogenates, 90% of the signal was recovered (data not shown).

Aβ fibrils = target: T4, Aβ fibrils (UniProt P05067 672-713); assay: sandwich ELISA, mAb158 as capture and biotinylated mAb158 as detector
T4 construct: Insoluble fibrillar aggregate
Method: as §1
In FIG. 2A a sandwich ELISA is shown. […] Colour development was measured according to the procedure recommended by the manufacturer.

AβArc protofibrils = target: T5, AβArc protofibrils (human, UniProt P05067 672-713, limits assumed); assay: sandwich ELISA, mAb158 as both capturing and detecting antibody
T5 construct: Used for a standard curve in the mAb158 sandwich ELISA; also called Arctic Aβ protofibrils
Source text: Establishment of an Aβ protofibril specific sandwich ELISA. To enable measurements of Aβ protofibrils in biological samples a sandwich ELISA with mAb158 as both capturing and detecting antibody was established. This assay measures Aβ protofibrils with a detection limit of 1 pM and with a linear range up to 250 pM (FIG. 6A, lines indicate linear regression of the standard curves). Due to uncertainties concerning the size of the Aβ protofibrils used in the standard curve, the concentration 1 pM is based on the molecular weight of one Aβ monomer (4514 g/mol), Though, since the molecular weight of a protofibril has been estimated to be at least 100 kDa, the limit of detection calculated as molar Aβ protofibrils could be as low as 50 fM. A standard curve of AβArc protofibrils gave a lower signal than wild type Aβ protofibrils, possibly due to differences in Aβ protofibril size (FIGS. 6A, 6B). Titrated synthetic LMW-Aβ (Low Molecular Weight Aβ). By the term "Low Molecular Weight Aβ", it is meant monomers, dimers and trimers of Aβ having a molecular weight of approximately 4-12 kDa. Aβ protofibrils and Aβ1-16 were used to validate the conformation specificity of the ELISA (FIG. 6B), where the hydrophilic Aβ1-16 peptide was used since it is not expected to aggregate. […]

6E10 = assay: 6E10-6E10 sandwich ELISA, Aβ1-16 competing with 50 pM Aβ protofibrils
Source text: as §3

[3] = target: B1; assay: mAb158 sandwich ELISA, Aβ1-16 competing with 50 pM Aβ protofibrils
Source text: as §3

[4] = target: T6, human Aβ42 wild-type protofibrils (human, UniProt P05067 672-713); assay: competitive ELISA with monomeric and protofibrillar Aβ
T6 construct: domain: Aβ42; Soluble oligomeric aggregate of many Aβ42 peptides; also called Aβ protofibrils; human wild-type Aβ protofibrils
T6 sequence (P05067 672-713 limits assumed): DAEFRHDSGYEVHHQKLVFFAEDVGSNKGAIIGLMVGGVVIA

T5 sequence (P05067 other isoform, or with tags, fused parts or gaps limits assumed): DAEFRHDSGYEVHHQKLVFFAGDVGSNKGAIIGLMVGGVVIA
T4 sequence (P05067 672-713): as the sequence (P05067 672-713 limits assumed) above
Sequence of 6E10 (VH, as listed by the source, chain 1 of 2): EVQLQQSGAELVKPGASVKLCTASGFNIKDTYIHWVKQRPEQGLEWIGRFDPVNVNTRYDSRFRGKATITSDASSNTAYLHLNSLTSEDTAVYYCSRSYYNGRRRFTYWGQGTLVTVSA
Sequence of 6E10 (VL, as listed by the source, chain 2 of 2): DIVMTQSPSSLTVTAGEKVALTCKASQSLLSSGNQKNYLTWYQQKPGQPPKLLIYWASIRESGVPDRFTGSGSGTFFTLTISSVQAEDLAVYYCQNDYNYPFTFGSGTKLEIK

B1: no binding [1]; no binding (medin fibrils); no binding (α-synuclein fibrils). The binding result [2] was “no binding”, the binding result (Aβ1-16) was “binds” and the “fold less cross-reactivity than with Aβ protofibrils” value (Aβ fibrils) was less than 40 fold. B1: binds (AβArc protofibrils).

With B2 the “molar excess of Aβ1-16 over Aβ protofibrils enough to decrease the signal” value (6E10) was 500 fold and the “molar excess of Aβ1-16 over Aβ protofibrils that did not disturb the signal” value [3] was 500000 fold.

B3: binds [4].
